From US20060257938A1, “Method of screening for drugs that block ligand binding to a lipid binding protein” (priority 2005, published 2006) come the findings set out here.

Holding throughout (type): binding
The nature of experiment [1]: Probe fluorescence ratio response to arachidonic acid relative to ADIFAB2. The note with it: arachidonic acid; response relative to ADIFAB2. The method, boiled down: (§1)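 Fluorescently labeled rat intestinal FABP variants were read at two emission wavelengths, near the unbound maximum (about 420 to 480 nm) and the FFA-bound maximum (about 495 to 580 nm). R = Fλ1/Fλ2 after subtracting probe-free intensity; ΔR = R+agent − R0, normalized to ADIFAB2 (rI-FABP-L72A).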

Experiment [2] in a line: Probe fluorescence ratio response to linolenic acid relative to ADIFAB2. The note with it: response relative to ADIFAB2. The method, boiled down: as §1
Experiment [3] is described as follows: Probe fluorescence ratio response to linoleic acid relative to ADIFAB2. The note with it: response relative to ADIFAB2. In outline: as §1
Experiment [4] in a line: Probe fluorescence ratio response to oleic acid relative to ADIFAB2. The note with it: response relative to ADIFAB2. The method, boiled down:
as §1

Experiment [5] in a line: Probe fluorescence ratio response to palmitic acid relative to ADIFAB2. Particulars: response relative to ADIFAB2. The method, boiled down:
as §1

Where “and” joins values, the source holds several entries; their conditions need not be identical. Equal entries are not always repeated.

B1: 31Y1, 72A (protein, listed as Rattus norvegicus)
chain: AFDGTWKVDRNENYEKFMEKMGINVVKRKLYAHDNLKLTITQEGNKFTVKESSNFRNIDVVFELGVDFAYSAADGTELTGTWTMEGNKLVGKFKRVDNGKELIAVREISGNELIQTYTYEGVEAKRIFKKE
modifications: PEPTIDE (1)...(131) wild-type rat intestinal fatty acid binding protein
Consider B1, for which the “DR/DR AA” value in experiment [1] was determined as 1.78. The “DR/DR LNA” value in experiment [2] was 1.61. Besides, the “DR/DR LA” value in experiment [3] is 1.75. In addition, in experiment [4], the “DR/DR OA” value was determined as 1.55. For the same molecule, the “DR/DR PA” value in experiment [5] stood at 1.10.

B2: 31Y2, 72A (protein, listed as Rattus norvegicus)
chain: AFDGTWKVDRNENYEKFMEKMGINVVKRKLYAHDNLKLTITQEGNKFTVKESSNFRNIDVVFELGVDFAYSAADGTELTGTWTMEGNKLVGKFKRVDNGKELIAVREISGNELIQTYTYEGVEAKRIFKKE
modifications: PEPTIDE (1)...(131) wild-type rat intestinal fatty acid binding protein
Turning to B2, the “DR/DR AA” value in experiment [1] is recorded as 0.37. The “DR/DR LNA” value in experiment [2] was determined as 0.80. For the same molecule, the “DR/DR LA” value in experiment [3] is on record as 0.36. The “DR/DR OA” value in experiment [4] amounted to 0.01. The “DR/DR PA” value in experiment [5] came out at 0.17.

B3: 34C, 72A (protein, listed as Rattus norvegicus)
chain: AFDGTWKVDRNENYEKFMEKMGINVVKRKLGAHCNLKLTITQEGNKFTVKESSNFRNIDVVFELGVDFAYSAADGTELTGTWTMEGNKLVGKFKRVDNGKELIAVREISGNELIQTYTYEGVEAKRIFKKE
modifications: PEPTIDE (1)...(131) wild-type rat intestinal fatty acid binding protein
Regarding B3, the “DR/DR AA” value in experiment [1] stood at 0.34. Also, the “DR/DR LNA” value in experiment [2] is 0.33. Besides, the “DR/DR LA” value in experiment [3] was 0.59. In experiment [4], the “DR/DR OA” value was 0.30. In addition, in experiment [5], the “DR/DR PA” value turned out to be 0.18.

B4: 34N, 72A (protein, listed as Rattus norvegicus)
chain: AFDGTWKVDRNENYEKFMEKMGINVVKRKLGAHNNLKLTITQEGNKFTVKESSNFRNIDVVFELGVDFAYSAADGTELTGTWTMEGNKLVGKFKRVDNGKELIAVREISGNELIQTYTYEGVEAKRIFKKE
modifications: PEPTIDE (1)...(131) wild-type rat intestinal fatty acid binding protein
As for B4, the “DR/DR AA” value in experiment [1] came to 1.19. Besides, the “DR/DR LNA” value in experiment [2] is 1.18. Further, the “DR/DR LA” value in experiment [3] worked out at 1.16. In addition, the “DR/DR OA” value in experiment [4] came out at 1.16. For the same molecule, the “DR/DR PA” value in experiment [5] stood at 1.11.

B5: 34R, 72A (protein, listed as Rattus norvegicus)
chain: AFDGTWKVDRNENYEKFMEKMGINVVKRKLGAHRNLKLTITQEGNKFTVKESSNFRNIDVVFELGVDFAYSAADGTELTGTWTMEGNKLVGKFKRVDNGKELIAVREISGNELIQTYTYEGVEAKRIFKKE
modifications: PEPTIDE (1)...(131) wild-type rat intestinal fatty acid binding protein
Regarding B5, the “DR/DR AA” value in experiment [1] is given as 0.41. For the same molecule, the “DR/DR LNA” value in experiment [2] is reported as 0.47. Also, in experiment [3], the “DR/DR LA” value is 0.61. The “DR/DR OA” value in experiment [4] is on record as 0.44. Besides, in experiment [5], the “DR/DR PA” value is recorded as 0.30.

B6: 34G, 72A (protein, listed as Rattus norvegicus)
chain: AFDGTWKVDRNENYEKFMEKMGINVVKRKLGAHGNLKLTITQEGNKFTVKESSNFRNIDVVFELGVDFAYSAADGTELTGTWTMEGNKLVGKFKRVDNGKELIAVREISGNELIQTYTYEGVEAKRIFKKE
modifications: PEPTIDE (1)...(131) wild-type rat intestinal fatty acid binding protein
In the case of B6, the “DR/DR AA” value in experiment [1] stood at 0.54. The “DR/DR LNA” value in experiment [2] stood at 0.29. Further, the “DR/DR LA” value in experiment [3] is recorded as 0.33. Besides, the “DR/DR OA” value in experiment [4] is 0.13. For the same molecule, in experiment [5], the “DR/DR PA” value was 0.18.

B7: 34S, 72A (protein, listed as Rattus norvegicus)
chain: AFDGTWKVDRNENYEKFMEKMGINVVKRKLGAHSNLKLTITQEGNKFTVKESSNFRNIDVVFELGVDFAYSAADGTELTGTWTMEGNKLVGKFKRVDNGKELIAVREISGNELIQTYTYEGVEAKRIFKKE
modifications: PEPTIDE (1)...(131) wild-type rat intestinal fatty acid binding protein
Regarding B7, the “DR/DR AA” value in experiment [1] is reported as 0.58. In experiment [2], the “DR/DR LNA” value is recorded as 0.59. Further, the “DR/DR LA” value in experiment [3] is 0.65. Moreover, in experiment [4], the “DR/DR OA” value came to 0.58. Moreover, the “DR/DR PA” value in experiment [5] is given as 0.43.

B8: 34K, 72A (protein, listed as Rattus norvegicus)
chain: AFDGTWKVDRNENYEKFMEKMGINVVKRKLGAHKNLKLTITQEGNKFTVKESSNFRNIDVVFELGVDFAYSAADGTELTGTWTMEGNKLVGKFKRVDNGKELIAVREISGNELIQTYTYEGVEAKRIFKKE
modifications: PEPTIDE (1)...(131) wild-type rat intestinal fatty acid binding protein
With B8, the “DR/DR AA” value in experiment [1] is listed as 0.43. The “DR/DR LNA” value in experiment [2] is 1.33. Further, the “DR/DR LA” value in experiment [3] amounted to 0.61. In addition, the “DR/DR OA” value in experiment [4] was 0.41. In experiment [5], the “DR/DR PA” value is 0.26.

B9: 34H, 72A (protein, listed as Rattus norvegicus)
chain: AFDGTWKVDRNENYEKFMEKMGINVVKRKLGAHHNLKLTITQEGNKFTVKESSNFRNIDVVFELGVDFAYSAADGTELTGTWTMEGNKLVGKFKRVDNGKELIAVREISGNELIQTYTYEGVEAKRIFKKE
modifications: PEPTIDE (1)...(131) wild-type rat intestinal fatty acid binding protein
Regarding B9, the “DR/DR AA” value in experiment [1] was determined as 0.65. The “DR/DR LNA” value in experiment [2] came out at 0.72. Also, the “DR/DR LA” value in experiment [3] amounted to 0.74. Further, the “DR/DR OA” value in experiment [4] stood at 0.52. In addition, the “DR/DR PA” value in experiment [5] came out at 0.38.

B10: 34P, 72A (protein, listed as Rattus norvegicus)
chain: AFDGTWKVDRNENYEKFMEKMGINVVKRKLGAHPNLKLTITQEGNKFTVKESSNFRNIDVVFELGVDFAYSAADGTELTGTWTMEGNKLVGKFKRVDNGKELIAVREISGNELIQTYTYEGVEAKRIFKKE
modifications: PEPTIDE (1)...(131) wild-type rat intestinal fatty acid binding protein
As to B10, the “DR/DR AA” value in experiment [1] was 0.46. Moreover, in experiment [2], the “DR/DR LNA” value is 0.76. In addition, the “DR/DR LA” value in experiment [3] is recorded as 0.66. In addition, in experiment [4], the “DR/DR OA” value is 0.46. The “DR/DR PA” value in experiment [5] worked out at 0.35.

B11: 34Q, 72A (protein, listed as Rattus norvegicus)
chain: AFDGTWKVDRNENYEKFMEKMGINVVKRKLGAHQNLKLTITQEGNKFTVKESSNFRNIDVVFELGVDFAYSAADGTELTGTWTMEGNKLVGKFKRVDNGKELIAVREISGNELIQTYTYEGVEAKRIFKKE
modifications: PEPTIDE (1)...(131) wild-type rat intestinal fatty acid binding protein
Turning to B11, the “DR/DR AA” value in experiment [1] amounted to 0.52. Also, the “DR/DR LNA” value in experiment [2] was 0.48. For the same molecule, the “DR/DR LA” value in experiment [3] is given as 0.56. The “DR/DR OA” value in experiment [4] is reported as 0.44. Moreover, the “DR/DR PA” value in experiment [5] worked out at 0.36.

B12: 34V, 72A (protein, listed as Rattus norvegicus)
chain: AFDGTWKVDRNENYEKFMEKMGINVVKRKLGAHVNLKLTITQEGNKFTVKESSNFRNIDVVFELGVDFAYSAADGTELTGTWTMEGNKLVGKFKRVDNGKELIAVREISGNELIQTYTYEGVEAKRIFKKE
modifications: PEPTIDE (1)...(131) wild-type rat intestinal fatty acid binding protein
In the case of B12, the “DR/DR AA” value in experiment [1] is listed as 1.22. In addition, in experiment [2], the “DR/DR LNA” value turned out to be 1.21. The “DR/DR LA” value in experiment [3] was found to be 1.15. The “DR/DR OA” value in experiment [4] came to 1.19. For the same molecule, the “DR/DR PA” value in experiment [5] was determined as 1.11.

B13: 34E, 72A (protein, listed as Rattus norvegicus)
chain: AFDGTWKVDRNENYEKFMEKMGINVVKRKLGAHENLKLTITQEGNKFTVKESSNFRNIDVVFELGVDFAYSAADGTELTGTWTMEGNKLVGKFKRVDNGKELIAVREISGNELIQTYTYEGVEAKRIFKKE
modifications: PEPTIDE (1)...(131) wild-type rat intestinal fatty acid binding protein
For B13, the “DR/DR AA” value in experiment [1] is 0.62 and 0.618. Also, in experiment [2], the “DR/DR LNA” value is 0.57 and 0.571. The “DR/DR LA” value in experiment [3] is 0.60 and 0.604. Moreover, the “DR/DR OA” value in experiment [4] was 0.49 and 0.486. The “DR/DR PA” value in experiment [5] was 0.48 and 0.482.

B14: 34A, 72A (protein, listed as Rattus norvegicus)
chain: AFDGTWKVDRNENYEKFMEKMGINVVKRKLGAHANLKLTITQEGNKFTVKESSNFRNIDVVFELGVDFAYSAADGTELTGTWTMEGNKLVGKFKRVDNGKELIAVREISGNELIQTYTYEGVEAKRIFKKE
modifications: PEPTIDE (1)...(131) wild-type rat intestinal fatty acid binding protein
On to B14, for which, in experiment [1], the “DR/DR AA” value came out at 0.58. The “DR/DR LNA” value in experiment [2] is given as 0.57. Further, the “DR/DR LA” value in experiment [3] is 0.57. The “DR/DR OA” value in experiment [4] is given as 0.49. Moreover, the “DR/DR PA” value in experiment [5] is 0.33.

B15: 34T, 72A (protein, listed as Rattus norvegicus)
chain: AFDGTWKVDRNENYEKFMEKMGINVVKRKLGAHTNLKLTITQEGNKFTVKESSNFRNIDVVFELGVDFAYSAADGTELTGTWTMEGNKLVGKFKRVDNGKELIAVREISGNELIQTYTYEGVEAKRIFKKE
modifications: PEPTIDE (1)...(131) wild-type rat intestinal fatty acid binding protein
With B15, the “DR/DR AA” value in experiment [1] worked out at 0.61. Moreover, the “DR/DR LNA” value in experiment [2] was 0.67. Further, in experiment [3], the “DR/DR LA” value turned out to be 0.64. The “DR/DR OA” value in experiment [4] worked out at 0.53. Further, in experiment [5], the “DR/DR PA” value amounted to 0.40.
